Data published in patent publication US20230227567A1 (SELVAX, published 2023).

Columns and labels:
[1] = target: T1, recombinant human CD40 extracellular domain with a C-terminal human IgG1 Fc domain and 6His tag (BioLegend) (human); assay: SPR Biacore T200, SVX-3001 amine-coupled to CM5, CD40-Fc analyte, 1:1 model; value 3
T1 construct: Bought reagent; also called CD40-Fc
Method: (§1) Method: Kinetic analysis by surface plasmon resonance (SPR) was carried out using the Biacore T200 (GE Healthcare). HBS-EP+ buffer was used as running buffer throughout.
(§2) Target immobilisation level: 600 RU. Wash solution: Ethanolamine.
(§3) Injection parameters for the sample were contact time: 120 seconds, flow rate: 30 μI/min, dissociation time: 300 seconds. Injection parameters for regeneration were contact time: 30 seconds, flow rate: 30 μI/min, stabilisation period: 0 seconds. Regeneration solution was either 10 mM glycine-HCl buffer pH 1.5 or 50 mM NaOH. The concentrations of CD40-His and CD40-Fc used for the kinetic analysis were […]. The model 1:1 binding was used for curve fitting.

[2] = target: T2, recombinant human CD40 extracellular domain with C-terminal 6His tag (Novoprotein) (human); assay: SPR Biacore T200, SVX-3001 amine-coupled to CM5, CD40-6His analyte, 1:1 model; value 1
T2 construct: Bought reagent; also called CD40-6His; CD40-His
T2 sequence (P25942 21-193): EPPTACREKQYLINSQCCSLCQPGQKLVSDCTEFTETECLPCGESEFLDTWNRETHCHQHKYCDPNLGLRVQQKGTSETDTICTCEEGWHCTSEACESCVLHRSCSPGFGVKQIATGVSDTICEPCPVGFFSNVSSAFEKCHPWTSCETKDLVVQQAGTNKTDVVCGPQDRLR
Method: as §1, §2, §3

[3] = target: T2, recombinant human CD40 extracellular …; assay: SPR Biacore T200, SVX-3001 amine-coupled to CM5, CD40-6His analyte, 1:1 model; average of three
Method: as §1, §2, §3

[4] = target: T2, recombinant human CD40 extracellular …; assay: SPR Biacore T200, SVX-3001 amine-coupled to CM5, CD40-6His analyte, 1:1 model; value 2
Method: as §1, §2, §3

[5] = target: T3, CD40 expressed on the surface of human peripheral blood mononuclear cells (human, UniProt P25942 21-277); assay: flow cytometry on human PBMC
T3 construct: Native CD40 on primary human cells (PBMC, B cells, monocyte-derived dendritic cells); also called native CD40 protein; CD40 on the surface of B cells
T3 sequence (P25942 21-277 limits assumed): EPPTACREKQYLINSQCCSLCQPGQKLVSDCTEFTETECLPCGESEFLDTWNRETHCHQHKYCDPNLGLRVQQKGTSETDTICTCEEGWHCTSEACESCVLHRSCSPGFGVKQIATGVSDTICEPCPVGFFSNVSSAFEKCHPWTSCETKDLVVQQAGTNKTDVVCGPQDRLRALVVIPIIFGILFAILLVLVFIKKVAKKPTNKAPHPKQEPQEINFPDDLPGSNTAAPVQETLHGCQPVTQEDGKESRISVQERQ
Method: PMBC were stained with an anti-human CD19 antibody labelled with PE. […] Lymphocytes were gated based on FSC-A and SSC-A signals.
FACS staining was carried out on 10⁶ human PBMC per well. […] Cells were washed twice with FACS buffer and resuspended in 20 μl of BV421 anti-mouse Ig diluted in FACS buffer and incubated for 30 minutes. Cells were washed twice with FACS buffer and resuspended in 20 μl of PE anti-human CD19 diluted in FACS buffer and incubated for 30 minutes. Cells were washed once with FACS buffer and once with PBS and resuspended in 100 μl of 1% formaldehyde in PBS and incubated for 20 minutes. Cells were washed twice with FACS buffer and resuspended in 200 μl of FACS buffer for analysis.
FACS staining controls included an unstained control, PE anti-human CD19 and BV421 mouse anti-human Ig single stain controls and human IgG1 isotype control. Cell staining was analysed using a FACS Canto II flow cytometer (BD). PMT voltages and gates for analysis were set using the FACS staining controls.

[6] = target: T1, recombinant human CD40 extracellular …; assay: SPR Biacore T200, SVX-3001 amine-coupled to CM5, CD40-Fc analyte, 1:1 model; average of three
Method: as §1, §2, §3

[7] = target: T1, recombinant human CD40 extracellular …; assay: SPR Biacore T200, SVX-3001 amine-coupled to CM5, CD40-Fc analyte, 1:1 model; value 1
Method: as §1, §2, §3

[8] = target: T2, recombinant human CD40 extracellular …; assay: SPR Biacore T200, SVX-3001 amine-coupled to CM5, CD40-6His analyte, 1:1 model; value 3
Method: as §1, §2, §3

[9] = target: T1, recombinant human CD40 extracellular …; assay: SPR Biacore T200, SVX-3001 amine-coupled to CM5, CD40-Fc analyte, 1:1 model; value 2
Method: as §1, §2, §3

T1 sequence (P25942 21-193): as the sequence (P25942 21-193) above

B1: Humanized anti-human CD-40 antibody SVX-3001 (antibody, human IgG1, kappa, V domains shown)
VH: QVQLQQSGPGLVKPSQSLSLTCAVSGYSITTNYYWNWIRQAPGKGLEWVGYIRYDGTTYYAPSLKGRFSITRDTSKNQFFLQLTSVTPEDTATYYCARLDYWGQGTLVTVSS
VL: DIVMTQSPLSLSVSLGDRASISCRSSQSLENSNGNTFLNWFQQKPGQSPQLLIYRVSNRFSGVPDRFSGSGSGTDFTLKISRVEAEDEGVYFCLQVTHVPYTFGGGTKLEIKR
notes: Human IgG1 heavy chain constant region and human kappa light chain constant region; made in HEK 293T cells, used as supernatant or Protein G purified; also called humanised agonist anti-human CD40 antibody; Selvax01
B1 was tested. Which Kd [1] did it give?
Its Kd is 0.308 nM.

What about the koff [1] of the same binder?
Its koff is 0.000203 s⁻¹.

And the kon [1]?
The kon was 661000 M⁻¹ s⁻¹.

What about the Kd [2] of the same binder?
Its Kd is 5.33 nM.

What about the koff [2] of the same binder?
The koff was 0.00381 s⁻¹.

What about the kon [2] of the same binder?
The kon was 715000 M⁻¹ s⁻¹.

What about the Kd [3] of the same binder?
The Kd was 6.11 nM.

What about the koff [3] of the same binder?
Its koff is 0.00388 s⁻¹.

And the kon [3]?
Its kon is 640000 M⁻¹ s⁻¹.

And the Kd [4]?
The Kd was 6.5 nM.

What about the koff [4] of the same binder?
The koff was 0.00409 s⁻¹.

What about the kon [4] of the same binder?
Its kon is 628000 M⁻¹ s⁻¹.

Does B1 bind [5]?
Result: binds

And the Kd [6]?
The Kd was 0.583 nM.

What about the koff [6] of the same binder?
Its koff is 0.00033 s⁻¹.

What about the kon [6] of the same binder?
The kon was 621000 M⁻¹ s⁻¹.

What about the Kd [7] of the same binder?
The Kd was 0.323 nM.

What about the koff [7] of the same binder?
The koff was 0.000232 s⁻¹.

And the kon [7]?
Its kon is 717000 M⁻¹ s⁻¹.

And the Kd [8]?
The Kd was 6.51 nM.

And the koff [8]?
Its koff is 0.00375 s⁻¹.

What about the kon [8] of the same binder?
Its kon is 576000 M⁻¹ s⁻¹.

And the Kd [9]?
Its Kd is 1.12 nM.

What about the koff [9] of the same binder?
The koff was 0.000555 s⁻¹.

What about the kon [9] of the same binder?
Its kon is 497000 M⁻¹ s⁻¹.
